Laboratory results reported in paper PMC2265111 (The EMBO Journal, 2008).

Target: the molecule itself
Assay: crystal structure

B1: Rap1GAP Q204A (75–415) (domain or fragment)
chain: not shown
stoichiometry N: 2
